Data: PMC3598421

Target: T1, BdSWN5 (Brachypodium distachyon, UniProt I2E2W5 1-346)
T1 sequence: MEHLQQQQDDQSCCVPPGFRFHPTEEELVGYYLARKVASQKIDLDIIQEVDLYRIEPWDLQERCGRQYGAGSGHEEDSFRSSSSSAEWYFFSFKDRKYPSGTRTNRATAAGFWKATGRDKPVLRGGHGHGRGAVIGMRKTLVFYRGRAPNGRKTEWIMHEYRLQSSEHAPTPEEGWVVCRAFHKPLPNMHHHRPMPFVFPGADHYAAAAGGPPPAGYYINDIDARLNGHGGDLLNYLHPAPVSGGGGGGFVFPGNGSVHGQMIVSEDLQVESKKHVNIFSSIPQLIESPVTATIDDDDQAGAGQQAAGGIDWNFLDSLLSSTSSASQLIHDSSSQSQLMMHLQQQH
Assay: competition

| Binder | binding result |
| --- | --- |
| SNBE1 M1 motif (dsDNA) DNA 1: AGCATACATTTATAGGAAGCGTATTCTCGCAGTCA DNA 2: TGACTGCGAGAATACGCTTCCTATAAATGTATGCT | no binding |
| SNBE2 M2 motif (dsDNA) DNA 1: TTTTACATTGCATATGCTTTGTATCAATTGCCCAA DNA 2: TTGGGCAATTGATACAAAGCATATGCAATGTAAAA | no binding |
